The test system of the data set is ATP. Briefly: switch fluorescence ratio, 500 uM ATP over buffer (Cy3 cluster intensity, sum of 5 cycles each) (fold (ratio)); higher = stronger signal-on switching upon ATP binding; sequences stand for … in TCGTCGGCAGCGTCAGATGTGTATAAGAGACAGTTTTTTTTTTTTTTTTTTTTTTTTT…TC. The settings on record: aptamer strand: ATP DNA aptamer (quencher-CACCTGGGGGAGTATTGCGGAGGAAGG + anchor), 100 nM annealed; ATP concentration: 500 uM. In a few lines: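 Values give the fluorescence ratio for each switch-domain sequence, averaged from per-cluster ratios of summed target-cycle to summed buffer-cycle Cy3 intensity. The Cy3-labelled switching-strand clusters sat on a modified Illumina MiSeq flow-cell, were annealed to 100 nM quencher-labelled ATP aptamer, and were imaged in selection buffer, then after 15 min with 500 uM ATP at 22 °C. Five cycles ran with NaOH stripping and re-annealing between them, and clusters outside 100-1000 RFU were excluded.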

± gives the standard deviation of the averaged measurements.
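Further: ATP exposure 15 min at 22 °C before imaging.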

Consider GTTAGTGTAG, for which the switch fluorescence ratio was 0.9975 ± 0.0011.

On to GTTAGTTAAA, for which the switch fluorescence ratio came to 0.968 ± 0.02.

GTTAGTTACT: the switch fluorescence ratio was determined as 1.01 ± 0.057.

Take GTTAGTTTGC: the switch fluorescence ratio came out at 1.01 ± 0.021.

For GTTATAACG, the switch fluorescence ratio was determined as 1 ± 0.05.

In the case of GTTATATGAC, the switch fluorescence ratio was 0.999 ± 0.012.

In the case of GTTATCACTG, the switch fluorescence ratio worked out at 1.02 ± 0.014.

On to GTTATCAGAT, for which the switch fluorescence ratio came to 1.02 ± 0.021.

In the case of GTTATCAGGG, the switch fluorescence ratio is 0.995 ± 0.026.

In the case of GTTATCGCTA, the switch fluorescence ratio is 1.07 ± 0.04.

On to GTTATCTTAG, for which the switch fluorescence ratio turned out to be 1.01 ± 0.025.

Consider GTTATGCGCG, for which the switch fluorescence ratio stood at 1.03 ± 0.013.

With GTTATGGCTG, the switch fluorescence ratio turned out to be 1.05 ± 0.021.

As to GTTATGGTAC, the switch fluorescence ratio turned out to be 1.03 ± 0.028.

Take GTTATGGTTT: the switch fluorescence ratio was 0.986 ± 0.031.

Take GTTATGTTGT: the switch fluorescence ratio came out at 1.01 ± 0.04.

Take GTTATTATGT: the switch fluorescence ratio came to 0.994 ± 0.077.

With GTTATTCATG, the switch fluorescence ratio amounted to 0.988 ± 0.018.

For GTTATTCCGG, the switch fluorescence ratio was 1.038 ± 0.0043.

As for GTTATTCTCT, the switch fluorescence ratio was 0.971 ± 0.015.

With GTTATTGGGG, the switch fluorescence ratio worked out at 1.01 ± 0.024.

Take GTTATTTGTT: the switch fluorescence ratio was 1.068 ± 0.0071.

As for GTTATTTTAA, the switch fluorescence ratio was determined as 0.9846 ± 0.0027.

As for GTTCAAAAGC, the switch fluorescence ratio was found to be 0.98 ± 0.034.

Regarding GTTCAAAGCG, the switch fluorescence ratio came out at 0.999 ± 0.029.

As for GTTCACTACC, the switch fluorescence ratio was determined as 1.15 ± 0.0083.

Regarding GTTCAGTGAG, the switch fluorescence ratio was found to be 0.995 ± 0.01.

On to GTTCATCCAG, for which the switch fluorescence ratio was found to be 1.05 ± 0.017.

Take GTTCATGGTA: the switch fluorescence ratio was determined as 0.99 ± 0.0028.

For the sequence GTTCATGGTT, the switch fluorescence ratio was 1.01 ± 0.054.

Take GTTCCGGCTG: the switch fluorescence ratio was determined as 1.02 ± 0.023.

Turning to GTTCCGGGTT, the switch fluorescence ratio was found to be 0.983 ± 0.075.

Regarding GTTCCTGCGG, the switch fluorescence ratio was found to be 1.075 ± 0.01.

Consider GTTCCTTAGG, for which the switch fluorescence ratio is 1.01 ± 0.026.

In the case of GTTCGACGGC, the switch fluorescence ratio was found to be 1.05 ± 0.095.

GTTCGGCAGA: the switch fluorescence ratio was found to be 1 ± 0.032.

Turning to GTTCGGGGCC, the switch fluorescence ratio was 1.01 ± 0.046.

As for GTTCGGGGTG, the switch fluorescence ratio is 0.978 ± 0.003.

For GTTCGGGTTG, the switch fluorescence ratio was determined as 0.988 ± 0.027.

For GTTCGTTAGG, the switch fluorescence ratio amounted to 1.017 ± 0.0016.

On to GTTCTATCAT, for which the switch fluorescence ratio came out at 0.961 ± 0.022.

With GTTCTGGGGG, the switch fluorescence ratio was 0.984 ± 0.024.

In the case of GTTCTTGGG, the switch fluorescence ratio worked out at 0.9835 ± 0.0023.

Turning to GTTCTTGTAT, the switch fluorescence ratio came to 0.988 ± 0.029.

With GTTCTTTGGG, the switch fluorescence ratio turned out to be 0.995 ± 0.013.

For the sequence GTTCTTTGTG, the switch fluorescence ratio is 1 ± 0.012.

As for GTTGAAACTT, the switch fluorescence ratio was determined as 0.9976 ± 0.004.

With GTTGAAAGCG, the switch fluorescence ratio was found to be 1.03 ± 0.015.

Regarding GTTGAAAGTA, the switch fluorescence ratio was found to be 0.977 ± 0.039.

GTTGAAATAA: the switch fluorescence ratio was determined as 1 ± 0.047.

As for GTTGAAGGAT, the switch fluorescence ratio came out at 1.003 ± 0.0036.

With GTTGAATGAC, the switch fluorescence ratio is 1.04 ± 0.0083.

With GTTGAATTAA, the switch fluorescence ratio is 0.985 ± 0.041.

With GTTGACAGCT, the switch fluorescence ratio amounted to 1 ± 0.015.

For GTTGACAGTG, the switch fluorescence ratio was 1 ± 0.062.

On to GTTGAGGGTC, for which the switch fluorescence ratio is 0.993 ± 0.021.

For GTTGAGGTCC, the switch fluorescence ratio was determined as 1.02 ± 0.041.

As for GTTGAGTAGC, the switch fluorescence ratio amounted to 1.02 ± 0.042.

With GTTGATAAGG, the switch fluorescence ratio came out at 1.01 ± 0.045.

With GTTGATGTAG, the switch fluorescence ratio turned out to be 0.984 ± 0.028.

With GTTGATTGGG, the switch fluorescence ratio stood at 0.994 ± 0.029.

In the case of GTTGATTTAT, the switch fluorescence ratio worked out at 0.983 ± 0.024.

As to GTTGATTTTA, the switch fluorescence ratio is 0.972 ± 0.014.

In the case of GTTGCAGCGC, the switch fluorescence ratio was found to be 0.982 ± 0.013.

In the case of GTTGCAGGTG, the switch fluorescence ratio worked out at 2.06 ± 0.057.

In the case of GTTGCTACCA, the switch fluorescence ratio was 1.01 ± 0.053.

Regarding GTTGGAAAGT, the switch fluorescence ratio is 0.99 ± 0.022.

With GTTGGAACAG, the switch fluorescence ratio was determined as 0.969 ± 0.043.

With GTTGGATAAT, the switch fluorescence ratio was 1 ± 0.033.

As to GTTGGATATT, the switch fluorescence ratio stood at 0.9976 ± 0.0064.

GTTGGATCCG: the switch fluorescence ratio stood at 0.984 ± 0.017.

GTTGGATTTA: the switch fluorescence ratio was 1.006 ± 0.0077.

Regarding GTTGGCCCGG, the switch fluorescence ratio was 0.997 ± 0.022.

Regarding GTTGGGAGGC, the switch fluorescence ratio is 1.064 ± 0.0014.

For GTTGGGCAGC, the switch fluorescence ratio is 1.046 ± 0.0053.

In the case of GTTGGGCTTT, the switch fluorescence ratio came out at 0.98 ± 0.025.

Turning to GTTGGGGAAA, the switch fluorescence ratio stood at 0.9985 ± 0.0075.

On to GTTGGGGATC, for which the switch fluorescence ratio was 0.991 ± 0.025.

In the case of GTTGGGGCCT, the switch fluorescence ratio was found to be 1.03 ± 0.051.

For the sequence GTTGGGGGAT, the switch fluorescence ratio came to 0.986 ± 0.038.

Take GTTGGGGGGG: the switch fluorescence ratio was determined as 1.01 ± 0.03.

As to GTTGGGGGTT, the switch fluorescence ratio turned out to be 1.01 ± 0.042.

Consider GTTGGGGTTT, for which the switch fluorescence ratio was 1.01 ± 0.031.

Regarding GTTGGGTGTG, the switch fluorescence ratio was found to be 1.02 ± 0.019.

GTTGGTGTGG: the switch fluorescence ratio came out at 0.9975 ± 0.0086.

For GTTGGTTAGA, the switch fluorescence ratio amounted to 0.9776 ± 0.005.

For GTTGGTTGGG, the switch fluorescence ratio turned out to be 0.975 ± 0.023.

As for GTTGGTTGTG, the switch fluorescence ratio amounted to 0.981 ± 0.0053.

Take GTTGGTTTGG: the switch fluorescence ratio is 1.04 ± 0.013.

Consider GTTGGTTTTG, for which the switch fluorescence ratio was 1.008 ± 0.0057.

For GTTGTAAAGT, the switch fluorescence ratio was found to be 1.03 ± 0.036.

In the case of GTTGTAACGT, the switch fluorescence ratio was determined as 0.988 ± 0.054.

In the case of GTTGTAAGAT, the switch fluorescence ratio is 0.981 ± 0.028.

As to GTTGTAAGCA, the switch fluorescence ratio amounted to 0.982 ± 0.053.

As to GTTGTACGAA, the switch fluorescence ratio came out at 1.19 ± 0.28.

Turning to GTTGTACGAT, the switch fluorescence ratio amounted to 0.9971 ± 0.003.

Turning to GTTGTAGCGG, the switch fluorescence ratio stood at 1 ± 0.029.

For GTTGTAGCTG, the switch fluorescence ratio came to 0.967 ± 0.015.

As for GTTGTAGTTA, the switch fluorescence ratio came to 1.01 ± 0.041.

On to GTTGTATGGA, for which the switch fluorescence ratio was 0.995 ± 0.034.

In the case of GTTGTATTAG, the switch fluorescence ratio turned out to be 0.988 ± 0.025.

GTTGTCGTTT: the switch fluorescence ratio worked out at 0.99104 ± 0.00015.

GTTGTGAAAG: the switch fluorescence ratio was found to be 1 ± 0.035.

On to GTTGTGGTAT, for which the switch fluorescence ratio is 0.9785 ± 0.0027.

Consider GTTGTGTCCG, for which the switch fluorescence ratio is 1.01 ± 0.067.

With GTTGTTAAAT, the switch fluorescence ratio was found to be 1.011 ± 0.0047.

For GTTGTTATAG, the switch fluorescence ratio was found to be 1.02 ± 0.039.

Turning to GTTGTTATAT, the switch fluorescence ratio was 1.02 ± 0.037.

As to GTTGTTATCG, the switch fluorescence ratio was 0.993 ± 0.028.

Turning to GTTGTTCTGA, the switch fluorescence ratio is 0.9718 ± 0.0033.

GTTGTTGAAT: the switch fluorescence ratio is 0.992 ± 0.026.

As to GTTGTTGTTT, the switch fluorescence ratio worked out at 0.999 ± 0.0094.

As for GTTGTTTAGC, the switch fluorescence ratio is 0.974 ± 0.022.

For the sequence GTTGTTTCGT, the switch fluorescence ratio is 1 ± 0.017.

GTTGTTTGGG: the switch fluorescence ratio is 0.99 ± 0.034.

For the sequence GTTGTTTTCA, the switch fluorescence ratio is 0.993 ± 0.024.

Take GTTTAAATTA: the switch fluorescence ratio was determined as 1.02 ± 0.018.

For the sequence GTTTACCGGA, the switch fluorescence ratio came to 1.05 ± 0.08.

Take GTTTAGATGT: the switch fluorescence ratio came to 0.994 ± 0.02.

For GTTTAGCTGT, the switch fluorescence ratio turned out to be 0.9948 ± 0.0021.

The values above are taken from the supplement of paper PMC10126150.
